Laboratory results: patent US20150086555A1
Like-named read-outs stand apart in the source and are kept apart here.

How the values were obtained:
Details in all cases: remark: other sources report otherwise
[1] = molecular target: T1, recombinant soluble homotrimeric HA of A/common magpie/Hong Kong/5052/07 (H5N1) (Influenza A virus A/common magpie/Hong Kong/5052/2007(H5N1))
[2] = molecular target: T1, recombinant soluble homotrimeric HA of …; test: HA microarray, BCC supernatant
[3] = molecular target: T1, recombinant soluble homotrimeric HA of …; test: trimeric HA microarray, transfection supernatant set 2
[4] = molecular target: recombinant homotrimeric HA A/common magpie/Hong Kong/5052/07 H5N1 (Influenza A virus A/common magpie/Hong Kong/5052/2007(H5N1)); test: protein microarray, purified IgG, trimeric HA
[5] = molecular target: T1, recombinant soluble homotrimeric HA of …; test: trimeric HA microarray, transfection supernatant set 3
[6] = molecular target: recombinant soluble homotrimeric HA, A/common magpie/Hong Kong/5052/07 H5N1 (Influenza A virus A/common magpie/Hong Kong/5052/2007(H5N1)); test: microarray, transfection SN IgG, trimeric HA
[7] = molecular target: T1, recombinant soluble homotrimeric HA of …; test: trimeric HA microarray, transfection supernatant set 1
[8] = molecular target: T1, recombinant soluble homotrimeric HA of …; test: trimeric HA microarray, transfection supernatant set 4
[9] = molecular target: T1, recombinant soluble homotrimeric HA of …; test: trimeric HA microarray, transfection supernatant set 5
[10] = molecular target: T1, recombinant soluble homotrimeric HA of …; test: HA microarray, control antibody

| Binder | Trimeric HA Binding: RLU [2] [RLU] | Trimeric HA Binding: RLU [3] [RLU] | Trimeric HA Binding: RLU [4] [RLU] | Trimeric HA Binding: RLU [5] [RLU] | Trimeric HA Binding: RLU [8] [RLU] | other results |
| --- | --- | --- | --- | --- | --- | --- |
| TCN-563 (5237_B21) (antibody, V domains shown) VH: QVQLAQSGAEVKRPGSSVKVSCTASGGIFRKNAISWVRQAPGQGLEWMGGIIAVFNTANYAQKFQGRVKITADESGNTAYMELSSLRSDDTAVYYCASHPKYFYGSGSYPDFWGQGTLVTVSS VL: QSALTQPRSVSGSPGQSVTISCTGSSSDVGASNSVSWYQQHPGKAPKLVIYDVTERPSGVPHRFSGSKSGNTASLTVSGLQPEDEADYFCCAYGGKYLVVFGGGTKVTVL | 27500 | 52800 | – | – | – | Trimeric HA Binding: RLU [1]: 20000 RLU |
| TCN-531 (5091_H13) (antibody, V domains shown) VH: EVQLVESGGDLVQPGRSLKLSCTGSGFTFGDYGVTWVRQAPGKGLEWVGFIRTRPWGGTADTAASVKGRFTISRDDSKSLAYLQMNSLKTEDTAVYYCCRDAPPNVEVASMTNWYFDLWGRGTLVTVSS VL: DIQLTQSPSSLSASVGDRVTITCRASQGILNCLAWYQQKPGKVPNLLMYAASTLQSGVPSRFSGSGFGTDFTLTISSLQPEDVATYYCQTYGGVSTFGGGTKVEIR | – | – | 674 | 37 | – | – |
| TCN-523 (5248_A17) (antibody, V domains shown) VH: QVQLVQSGAEVKKPGSSVKVSCKASGGSFSNYAFSWVRQAPGQGLEWMGGTIPLLGTTNYAQKFQGRVTISADQFTSTAYMELGSLRSEDTAVYYCTRRKMTTAFDSWGQGTLVTVSS VL: QPVLTQPPSASASLGASVTLTCTLSSAYSNYKVDWYQQRPGKGPRFVMRVGTGGIVGSKGDGIPDRFSVLGSGLNRYLTIKNIQEEDESDYHCGADHGSGSNFVSPYVFGGGTKLTVL | 45800 | 7210 | 20900 | 640 | 2130 | Trimeric HA Binding: RLU [6]: 33900 RLU; Trimeric HA Binding: RLU [7]: 6240 RLU |
| TCN-536 (5095_N01) (antibody, V domains shown) VH: QVQLQQWGAGLLKPSETLSLTCAVYGGSFSVSGYYWSWIRQPPGRGLEWIGEISHGGSTNYNPSLKSRVTISVDTTKNQFSLRLSSVTAADTAVYYCARGTDPDTEVYCRVGNCAAFDYWGQGSLVTVSS VL: EIILAQSPGTLSLSPGERATLSCRASQFVSTRSLAWYQQRPGQAPRLLIYGASSRATGIPDRFSGSGSGTDFTLTISRLEPEDFAVYYCQHYGYSPRYAFGQGSKVEIK | – | – | 794 | – | 27 | – |
| TCN-535 (5246_P19) (antibody, V domains shown) VH: QVQLVQSGSEVKKPGTSVKVSCTASGSVFTNYGISWVRQAPGQGLEWMGGIIPLFGAAKYAQKFQGRVTITADESTKTVYMELSRLTSKDTAIYFCAKAPRVYEYYFDQWGQGTPVTVSS VL: EIVLTQSPGTLSLSPGERATLSCRASQSVSSSQLAWYQQKPGQAPRLIIYGASTRATGIPDRFSGSGSGTDFTLTIGRLEPEDFAVFFCQQYSTSPPTFGQGTKVDFK | 45900 | – | 20400 | – | 477 | – |
| TCN-530 (5248_H10a) (antibody, V domains shown) VH: QVQLVQSGAEVRKPGSSVKVSCKASGGPFMSYAIGWVRQAPGQGLEWMGGINPVFGRPHYAQKFQGRVTIATDDSTKTSYMELSSLTSEDTGMYYCASRYSRSSPGTFESWGQGTLVTVSS VL: EIVMTQFPATLSVSPGERVTLSCRASQSVSNNLAWYQQKPGQPPRLLIYDASTRATGVPAKFSGTGSGTEFTLSISSLQSEDFAVYYCQQYHNWPPSYSFGLGTKLEIK | 42500 | – | 10300 | 5580 | – | – |
| TCN-534 (5249_B02) (antibody, V domains shown) VH: QVQLVQSGAEVKKPGSSVKVSCRESGGTFNGYTITWVRQAPGQGLEWMGGIIPMMGTVNYAQKLQGRVTITTDYFTKTAYMDLNNLRSEDTAMYYCVKIRYTGQQLLWGQGTLVTVSS VL: DIQMTQSPSTLSASIGDRVTITCRASQSIASWLAWYQQKPGKAPKLLIYEAVNLESGVPSRFSGSGSGTDFTLTISSLQPDDFATYFCQHYGTISQTFGGGTKVEIK | 32500 | – | 16500 | – | 127 | – |
| TCN-564 (5256_A17b) (antibody, V domains shown) VH: QVQLVQSGADVKKPGSSVTVSCKASGGSFSNYGINWVRQAPGQGLEWMGGIIPLINAPNYAPKFQGRVTITADMFSNIVSLQLTSLRTDDTAVYYCARRKMTTAIDYWGQGTLVTVSS VL: QPVLSQPPSASASLGASVTLTCTLSSGFDNYQVAWYQQRPGKGPRFVMRVGNGGNVASKGDGIPDRFSVSGSGLNRYLTIKNIQEDDESDYYCGADHGSGNNFVSPYVFGGGTKLTVL | – | – | – | – | – | Trimeric HA Binding: RLU [1]: 20800 RLU |
| TCN-540 (5060_F05) (antibody, V domains shown) VH: QVQLVQSGGGVVQPGRSLRLSCAASGFTFSSYAMHWVRQAPGKGLEWVAIISYDGNDQYYTDSVKGRFTISRDSSKVYLQMHRLRPEDTAVYYCAKEFETSGYFHGSFDYWGQGILVTVSS VL: QSALTQPASVSGSPGQSITISCTGTSSDVGGYNYVSWYQQHPGKAPKLLIYEVTNWPSGVSNRFSGSKSGNTASLTISGLQAEDEADYYCSSYAGSSTWVFGGGTRVTVL | 113 | – | 799 | – | – | Trimeric HA Binding: RLU [9]: 1800 RLU |
| TCN-504 (3251_K17) (antibody, V domains shown) VH: QVQLQESGPGLVKPSETLSLTCAVSGVSISNIDFYWGWIRQPPGKGLEWIGNIYYTGITFYNPSLSSRVAISIDTSKNQFSLTLTSVTAADTAMYYCARHYGDSEAINDAFDIWGQGTMLTVSS VL: EIVMTQSPATLSVSPGERATLSCRASQSVGNSLAWYQQRPGQAPRLLIYGASTRATGIPPRFSGSGSGTEFTLTISSLQTEDFAVYYCQQYINWRPLSFGGGTKVEIK | – | 16800 | – | 17800 | 8680 | Trimeric HA Binding: RLU [10]: 17000 RLU; Trimeric HA Binding: RLU [6]: 37300 RLU; Trimeric HA Binding: RLU [7]: 29700 RLU |
